Assay results taken from the supplement of paper PMC10567573.

B1: ZNF263 (parent)
chain: LLRHQRIHTGERPYKCPECGKSFS

Variants of: B1
Test: protein stability index of a GFP-peptide fusion (GPS, HEK-293T) (PSI 1-6); higher = more stable
Details: c terminus: a fixed tail appended
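Further: lentivirally expressed fusions sorted by FACS into six bins by GFP to DsRed ratio, PSI derived from sequencing read proportions per bin multiplied by bin number.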

Protein stability index of substitutions, site by site:
F23: D 3.13; Q 3.71; K 2.83; P 3.39; M 1.99; G 2.75; A 2.87; T 2.59; L 2.14; E 2.38; R 1.93; C 3.29; N 2.68; V 2.53; W 1.84; Y 2.79; I 2.51; H 3.64; S 2.25
G20: L 1.66; N 2.35; P 1.88; D 2.52; C 1.87; M 2.13; E 1.66; R 1.79; F 2.99; V 2.42; W 1.46; Y 1.76; H 2.21; K 2.27; A 2.05; S 1.95; T 2.17; I 1.75; Q 1.86
S22: A 2.41; N 1.4; P 2.36; V 2.98; K 2.35; G 2.65; Q 2.5; L 1.92; D 1.63; E 1.88; R 2.4; C 2.37; H 2.29; T 2.23; W 2.09; F 2.2; Y 2.38; I 2.88; M 2.05
K21: M 1.59; Y 2.19; R 2.01; D 2.38; I 1.68; A 2.93; H 2.82; S 1.84; Q 2.75; F 1.82; C 2.11; L 2.77; E 2.53; P 2.61; G 1.83; V 1.91; T 2.16; N 2.05
C19: W 1.66; R 3.57; T 3.42; Q 3.3; Y 2.45; M 2.07; V 3.08; P 2.87; H 3.21; S 2.45; I 1.81; L 2.15; G 3.3; K 3.08
S24: A 1.92; G 3.65; W 2.59; I 2.11; K 2.07; Q 3.11; F 2.01; R 1.94; D 2.36; Y 2.25; V 2.62; C 3.14; H 2.12; T 2.08; E 1.88; P 2.24; N 2.34; L 2.43; M 2.28
